The supplement of paper PMC11246515
± gives the standard deviation of the averaged measurements.

Experiment: total protein half-life in vivo (active degradation + dilution); higher = more stable protein
[1] = E. coli NCM3722 delta-clpP delta-lon delta-hslV, growth: N-lim chemostat, doubling time 6 h
[2] = E. coli NCM3722 delta-clpP, growth: N-lim chemostat, doubling time 6 h
[3] = E. coli NCM3722 delta-hslV, growth: N-lim chemostat, doubling time 6 h
[4] = E. coli NCM3722 delta-lon, growth: N-lim chemostat, doubling time 6 h
[5] = E. coli NCM3722 delta-smpB, growth: N-lim chemostat, doubling time 6 h
[6] = wild type E. coli NCM3722, growth: C-lim chemostat, doubling time 3 h
[7] = wild type E. coli NCM3722, growth: C-lim chemostat, doubling time 6 h
[8] = wild type E. coli NCM3722, growth: C-lim chemostat, doubling time 12 h
[9] = wild type E. coli NCM3722, growth: N-lim chemostat, doubling time 6 h
[10] = wild type E. coli NCM3722, growth: N-lim chemostat, doubling time 12 h
[11] = wild type E. coli NCM3722, growth: P-lim chemostat, doubling time 6 h
[12] = wild type E. coli NCM3722, growth: P-lim chemostat, doubling time 12 h

Sequence: MKLYNLKDHNEQVSFAQAVTQGLGKNQGLFFPHDLPEFSLTEIDEMLKLDFVTRSAKILSAFIGDEIPQEILEERVRAAFAFPAPVANVESDVGCLELFHGPTLAFKDFGGRFMAQMLTHIAGDKPVTILTATSGDTGAAVAHAFYGLPNVKVVILYPRGKISPLQEKLFCTLGGNIETVAIDGDFDACQALVKQAFDDEELKVALGLNSANSINISRLLAQICYYFEAVAQLPQETRNQLVVSVPSGNFGDLTAGLLAKSLGLPVKRFIAATNVNDTVPRFLHDGQWSPKATQATLSNAMDVSQPNNWPRVEELFRRKIWQLKELGYAAVDDETTQQTMRELKELGYTSEPHAAVAYRALRDQLNPGEYGLFLGTAHPAKFKESVEAILGETLDLPKELAERADLPLLSHNLPADFAALRKLMMNHQ
- total protein half-life in vivo [1]: 5.07 ± 0.61 h
- total protein half-life in vivo [2]: 4.78 ± 0.058 h
- total protein half-life in vivo [3]: 5.09 ± 0.18 h
- total protein half-life in vivo [4]: 5.28 ± 0.25 h
- total protein half-life in vivo [5]: 4.57 ± 0.11 h
- total protein half-life in vivo [6]: 3.25 ± 0.27 h
- total protein half-life in vivo [7]: 6.01 ± 0.15 h
- total protein half-life in vivo [8]: 11.9 ± 0.91 h
- total protein half-life in vivo [9]: 4.989 ± 0.048 h
- total protein half-life in vivo [10]: 8.57 ± 0.57 h
- total protein half-life in vivo [11]: 5.76 ± 0.32 h
- total protein half-life in vivo [12]: 11.9 ± 0.51 h

Sequence: MKMANHPRPGDIIQESLDELNVSLREFARAMEIAPSTASRLLTGKAALTPEMAIKLSVVIGSSPQMWLNLQNAWSLAEAEKTVDVSRLRRLVTQ
- total protein half-life in vivo [1]: 3.73 ± 0.35 h
- total protein half-life in vivo [5]: 1.217 ± 0.0059 h
- total protein half-life in vivo [6]: 1.58 h
- total protein half-life in vivo [7]: 2.32 h
- total protein half-life in vivo [8]: 2.59 h
- total protein half-life in vivo [12]: 3.05 ± 1.1 h

Sequence: MKMLRDPLFWLIALFVALIFWLPYSQPLFAALFPQLPRPVYQQESFAALALAHFWLVGISSLFAVIIGTGAGIAVTRPWGAEFRPLVETIAAVGQTFPPVAVLAIAVPVIGFGLQPAIIALILYGVLPVLQATLAGLGAIDASVTEVAKGMGMSRGQRVRKVELPLAAPVILAGVRTSVIINIGTATIASTVGASTLGTPIIIGLSGFNTAYVIQGALLVALAAIIADRLFERLVQALSQHAK
- total protein half-life in vivo [10]: 5.89 h

Sequence: MKNDVISPEFDENGRPLRRIRSFVRRQGRLTKGQEHALENYWPVMGVEFSEDMLDFPALFGREAPVTLEIGFGMGASLVAMAKDRPEQDFLGIEVHSPGVGACLASAHEEGLSNLRVMCHDAVEVLHKMIPDNSLRMVQLFFPDPWHKARHNKRRIVQVPFAELVKSKLQLGGVFHMATDWEPYAEHMLEVMSSIDGYKNLSESNDYVPRPASRPVTKFEQRGHRLGHGVWDLMFERVK [P0A8I5]
- total protein half-life in vivo [1]: 5.11 ± 0.029 h
- total protein half-life in vivo [2]: 4.82 h
- total protein half-life in vivo [3]: 7.09 h
- total protein half-life in vivo [5]: 4.18 ± 0.61 h
- total protein half-life in vivo [6]: 2.73 h
- total protein half-life in vivo [7]: 4.88 ± 0.4 h
- total protein half-life in vivo [8]: 8.12 ± 0.26 h
- total protein half-life in vivo [9]: 4.58 ± 0.17 h
- total protein half-life in vivo [10]: 7.49 ± 1.2 h
- total protein half-life in vivo [11]: 3.77 h
- total protein half-life in vivo [12]: 8.11 ± 0.11 h

Sequence: MKNIIRTPETHPLTWRLRDDKQPVWLDEYRSKNGYEGARKALTGLSPDEIVNQVKDAGLKGRGGAGFSTGLKWSLMPKDESMNIRYLLCNADEMEPGTYKDRLLMEQLPHLLVEGMLISAFALKAYRGYIFLRGEYIEAAVNLRRAIAEATEAGLLGKNIMGTGFDFELFVHTGAGRYICGEETALINSLEGRRANPRSKPPFPATSGAWGKPTCVNNVETLCNVPAILANGVEWYQNISKSKDAGTKLMGFSGRVKNPGLWELPFGTTAREILEDYAGGMRDGLKFKAWQPGGAGTDFLTEAHLDLPMEFESIGKAGSRLGTALAMAVDHEINMVSLVRNLEEFFARESCGWCTPCRDGLPWSVKILRALERGEGQPGDIETLEQLCRFLGPGKTFCAHAPGAVEPLQSAIKYFREEFEAGIKQPFSNTHLINGIQPNLLKERW
- total protein half-life in vivo [1]: 5.67 ± 0.18 h
- total protein half-life in vivo [2]: 5.27 ± 0.43 h
- total protein half-life in vivo [3]: 6.1 ± 0.97 h
- total protein half-life in vivo [4]: 5.74 ± 0.13 h
- total protein half-life in vivo [5]: 5.48 ± 0.17 h
- total protein half-life in vivo [6]: 2.73 ± 0.23 h
- total protein half-life in vivo [7]: 5.63 ± 0.092 h
- total protein half-life in vivo [8]: 9.99 ± 0.41 h
- total protein half-life in vivo [9]: 5.44 ± 0.24 h
- total protein half-life in vivo [10]: 9.884 ± 0.082 h
- total protein half-life in vivo [11]: 5.251 ± 0.0079 h
- total protein half-life in vivo [12]: 10.4 ± 0.9 h

Sequence: MKNIRNFSIIAHIDHGKSTLSDRIIQICGGLSDREMEAQVLDSMDLERERGITIKAQSVTLDYKASDGETYQLNFIDTPGHVDFSYEVSRSLAACEGALLVVDAGQGVEAQTLANCYTAMEMDLEVVPVLNKIDLPAADPERVAEEIEDIVGIDATDAVRCSAKTGVGVQDVLERLVRDIPPPEGDPEGPLQALIIDSWFDNYLGVVSLIRIKNGTLRKGDKVKVMSTGQTYNADRLGIFTPKQVDRTELKCGEVGWLVCAIKDIHGAPVGDTLTLARNPAEKALPGFKKVKPQVYAGLFPVSSDDYEAFRDALGKLSLNDASLFYEPESSSALGFGFRCGFLGLLHMEIIQERLEREYDLDLITTAPTVVYEVETTSREVIYVDSPSKLPAVNNIYELREPIAECHMLLPQAYLGNVITLCVEKRGVQTNMVYHGNQVALTYEIPMAEVVLDFFDRLKSTSRGYASLDYNFKRFQASDMVRVDVLINGERVDALALITHRDNSQNRGRELVEKMKDLIPRQQFDIAIQAAIGTHIIARSTVKQLRKNVLAKCYGGDISRKKKLLQKQKEGKKRMKQIGNVELPQEAFLAILHVGKDNK
- total protein half-life in vivo [1]: 5.44 ± 0.33 h
- total protein half-life in vivo [2]: 5.46 ± 0.92 h
- total protein half-life in vivo [3]: 5.24 ± 0.14 h
- total protein half-life in vivo [4]: 5.28 ± 0.43 h
- total protein half-life in vivo [5]: 4.79 ± 0.27 h
- total protein half-life in vivo [6]: 3.03 ± 0.18 h
- total protein half-life in vivo [7]: 5.49 ± 0.072 h
- total protein half-life in vivo [8]: 10.2 ± 0.72 h
- total protein half-life in vivo [9]: 4.754 ± 0.043 h
- total protein half-life in vivo [10]: 8.74 ± 0.49 h
- total protein half-life in vivo [11]: 5.851 ± 0.057 h
- total protein half-life in vivo [12]: 12.16 ± 0.1 h

Sequence: MKNIRYIDKKDVENLIENKISDDVIIFLSGPTSQKTPLSVLRTKDIIAVNGSAQYLLSNNIVPFIYVLTDVRFLHQRRDDFYKFSQRSRYTIVNVDVYEHASKEDKLYILQNCLVLRSFYRREKGGFIKKIKFNILRQIHKELLISVPLSKKGRLVGFCKDISLGYCSCHTIAFAAIQIAYSLKYARIICSGLDLTGSCSRFYDENKNPMPSELSRDLFKILPFFRFMHDNVKDINIYNLSDDTAISYDVIPFIKLQDISAEESKDMTRKKMQYRTSTDSYAN
- total protein half-life in vivo [1]: 5.01 ± 0.085 h
- total protein half-life in vivo [2]: 4.65 ± 0.19 h
- total protein half-life in vivo [4]: 3.32 ± 0.14 h
- total protein half-life in vivo [5]: 3.714 ± 0.0057 h
- total protein half-life in vivo [6]: 1.67 ± 0.44 h
- total protein half-life in vivo [7]: 1.52 ± 0.34 h
- total protein half-life in vivo [8]: 1.73 ± 0.45 h
- total protein half-life in vivo [9]: 3.52 h
- total protein half-life in vivo [10]: 6.11 ± 0.77 h
- total protein half-life in vivo [11]: 1.84 ± 0.14 h
- total protein half-life in vivo [12]: 4.15 ± 0.71 h

Sequence: MKNKADNKKRNFLTHSEIESLLKAANTGPHAARNYCLTLLCFIHGFRASEICRLRISDIDLKAKCIYIHRLKKGFSTTHPLLNKEVQALKNWLSIRTSYPHAESEWVFLSRKGNPLSRQQFYHIISTSGGNAGLSLEIHPHMLRHSCGFALANMGIDTRLIQDYLGHRNIRHTVWYTASNAGRFYGIWDRARGRQRHAVL [P0ADH5]
- total protein half-life in vivo [1]: 5.33 ± 0.87 h
- total protein half-life in vivo [4]: 1.9 h
- total protein half-life in vivo [5]: 0.718 ± 0.15 h
- total protein half-life in vivo [10]: 0.988 h
